# B1: mRNA-decapping enzyme-like protein (Arabidopsis thaliana (Mouse-ear cress)), Q9SJF3 (parent)
# chain: MSQNGKIIPNLDQNSTRLLNLTVLQRIDPYIEEILITAAHVTFYEFNIELSQWSRKDVEGSLFVVKRSTQPRFQFIVMNRRNTDNLVENLLGDFEYEVQGPYLLYRNASQEVNGIWFYNKRECEEVATLFNRILSAYSKVNQKPKASSSKSEFEELEAKPTMAVMDGPLEPSSTARDAPDDPAFVNFFSSTMNLGNTASGSASGPYQSSAIPHQPHQPHQPTIAPPVAAAAPPQIQSPPPLQSSSPLMTLFDNNPEVISSNSNIHTDLVTPSFFGPPRMMAQPHLIPGVSMPTAPPLNPNNASHQQRSYGTPVLQPFPPPTPPPSLAPAPTGPVISRDKVKEALLSLLQEDEFIDKITRTLQNALQQ
# partner: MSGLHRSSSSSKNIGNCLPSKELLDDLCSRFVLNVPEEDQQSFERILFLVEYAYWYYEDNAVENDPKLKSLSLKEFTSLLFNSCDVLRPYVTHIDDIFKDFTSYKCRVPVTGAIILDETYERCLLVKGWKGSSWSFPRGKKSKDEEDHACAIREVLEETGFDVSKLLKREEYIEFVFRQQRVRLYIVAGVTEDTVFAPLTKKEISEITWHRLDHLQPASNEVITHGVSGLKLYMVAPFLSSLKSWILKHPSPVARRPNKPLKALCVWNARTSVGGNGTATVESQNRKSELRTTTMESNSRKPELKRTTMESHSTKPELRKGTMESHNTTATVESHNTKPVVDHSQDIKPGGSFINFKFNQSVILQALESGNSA
# Variants of: B1
# Settings: with dcp2_arath DCP2, Q8GW31
row,effect of a mutation on the interaction,Variant
1,increasing interaction,S237D
